In publication PMC4112721 (Plant Biotechnology Journal, 2013):

B1: VRC01 from transiently transformed Nicotiana benthamiana plants (antibody, V domains shown)
VH: QVQLVQSGGQMKKPGESMRISCRASGYEFIDCTLNWIRLAPGKRPEWMGWLKPRGGAVNYARPLQGRVTMTRDVYSDTAFLELRSLTVDDTAVYFCTRGKNCDYNWDFEHWGRGTPVIVSS
VL: EIVLTQSPGTLSLSPGETAIISCRTSQYGSLAWYQQRPGQAPRLVIYSGSTRAAGIPDRFSGSRWGPDYNLTISNLESGDFGVYYCQQYEFFGQGTKVQVD
notes: IgG1 kappa; plant-codon-optimized genes, both chains on one pTRAk.2 vector; also called VRC01 transient; transient plant-derived VRC01
B2: VRC01 from HEK cells (antibody, V domains shown)
VH: QVQLVQSGGQMKKPGESMRISCRASGYEFIDCTLNWIRLAPGKRPEWMGWLKPRGGAVNYARPLQGRVTMTRDVYSDTAFLELRSLTVDDTAVYFCTRGKNCDYNWDFEHWGRGTPVIVSS
VL: EIVLTQSPGTLSLSPGETAIISCRTSQYGSLAWYQQRPGQAPRLVIYSGSTRAAGIPDRFSGSRWGPDYNLTISNLESGDFGVYYCQQYEFFGQGTKVQVD
notes: as the heavy chain of m1; as the light chain of m1; IgG1 kappa; also called VRC01 HEK; HEK-cells-derived VRC01; source: HEK cells, purified
B3: VRC01 from stably transformed (transgenic) Nicotiana tabacum plants (antibody, V domains shown)
VH: QVQLVQSGGQMKKPGESMRISCRASGYEFIDCTLNWIRLAPGKRPEWMGWLKPRGGAVNYARPLQGRVTMTRDVYSDTAFLELRSLTVDDTAVYFCTRGKNCDYNWDFEHWGRGTPVIVSS
VL: EIVLTQSPGTLSLSPGETAIISCRTSQYGSLAWYQQRPGQAPRLVIYSGSTRAAGIPDRFSGSRWGPDYNLTISNLESGDFGVYYCQQYEFFGQGTKVQVD
notes: as the heavy chain of m1; as the light chain of m1; IgG1 kappa; source: N. tabacum cv

Molecular target: T1, HIV-1 envelope glycoprotein gp120 IIIB (HIV-1 group M subtype B, isolate IIIB …, UniProt P03375)
T1 construct: gp120 surface glycoprotein, cut product of the HIV-1 Env precursor, isolate IIIB; also called recombinant gp120 III; HIV gp120 IIIB; source: purified recombinant; NIH ARRRP
Assay: SPR; Protein A amine-coupled on a CM5 chip, VRC01 captured to about 100 RU, gp120 IIIB injected at 20 ug/mL; BIAcore X-100, 25 °C, HBS-EP+ (10 mM HEPES pH 7.4, 150 mM NaCl, 3 mM EDTA, 0.05% surfactant P-20); 1:1 Langmuir fit; triplicate
Details: both partners purified

Binder | Kd [nM]
B1 | 1.68
B2 | 0.66
B3 | 1.39
